Source: paper PMC9482650, “Quantitative fragmentomics allow affinity mapping of interactomes” (Nature Communications, 2022)

Legend:
Experiment in all cases: holdup assay
Set-up in all cases: key: below the threshold = too weak to quantify, mostly under pKd 3.1 to 4
[1] = target: T1, PDZD2_1, O15018
T1 sequence (O15018 80-192, limits assumed, looked up): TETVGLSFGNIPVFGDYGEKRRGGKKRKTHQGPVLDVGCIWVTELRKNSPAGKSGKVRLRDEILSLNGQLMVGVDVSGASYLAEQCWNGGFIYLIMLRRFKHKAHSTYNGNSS

[2] = target: T2, PDZD2_5, O15018
T2 sequence (O15018 2617-2716, limits assumed, looked up): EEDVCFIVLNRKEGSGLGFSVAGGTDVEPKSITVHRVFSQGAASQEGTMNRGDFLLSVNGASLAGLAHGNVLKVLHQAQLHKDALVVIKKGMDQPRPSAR

[3] = target: T3, MPP1, Q00013
T3 sequence (Q00013 66-162, limits assumed, looked up): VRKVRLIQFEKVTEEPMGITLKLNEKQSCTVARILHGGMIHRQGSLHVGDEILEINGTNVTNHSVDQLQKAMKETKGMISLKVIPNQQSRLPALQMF

[4] = target: PREX1_1, Q8TCU6
[5] = target: DLG2_1, Q15700
[6] = target: T4, APBA3_2, O96018
T4 sequence (O96018 480-570, limits assumed, looked up): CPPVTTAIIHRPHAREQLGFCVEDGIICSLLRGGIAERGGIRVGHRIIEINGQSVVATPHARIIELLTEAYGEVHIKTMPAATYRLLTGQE

[7] = target: PARD3B_2, Q8TEW8
[8] = target: T5, RGS12, O14924
T5 sequence (O14924 17-108, limits assumed, looked up): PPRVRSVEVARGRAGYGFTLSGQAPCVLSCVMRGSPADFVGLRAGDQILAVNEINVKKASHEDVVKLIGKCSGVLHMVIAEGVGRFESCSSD

[9] = target: T6, MPDZ_6, O75970
T6 sequence (O75970 1003-1099, limits assumed, looked up): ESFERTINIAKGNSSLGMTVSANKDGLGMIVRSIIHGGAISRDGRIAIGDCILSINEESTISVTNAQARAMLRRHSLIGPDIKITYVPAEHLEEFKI

[10] = target: T7, PREX2_2, Q70Z35
T7 sequence (Q70Z35 672-764, limits assumed, looked up): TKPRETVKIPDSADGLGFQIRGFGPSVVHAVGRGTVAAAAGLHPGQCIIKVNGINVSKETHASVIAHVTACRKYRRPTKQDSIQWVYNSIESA

[11] = target: T8, PARD6G, Q9BYG4
T8 sequence (Q9BYG4 153-261, limits assumed, looked up): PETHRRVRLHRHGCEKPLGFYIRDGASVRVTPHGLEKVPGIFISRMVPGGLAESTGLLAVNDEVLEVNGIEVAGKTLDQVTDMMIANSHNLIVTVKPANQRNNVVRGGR

[12] = target: T9, USH1C_2, Q9Y6N9
T9 sequence (Q9Y6N9 206-303, limits assumed, looked up): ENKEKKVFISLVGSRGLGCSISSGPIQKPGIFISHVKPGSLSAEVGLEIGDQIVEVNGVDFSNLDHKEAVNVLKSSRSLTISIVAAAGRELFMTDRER

[13] = target: MAGI3_5, Q5TCQ9
[14] = target: T10, MPDZ_7, O75970
T10 sequence (O75970 1146-1253, limits assumed, looked up): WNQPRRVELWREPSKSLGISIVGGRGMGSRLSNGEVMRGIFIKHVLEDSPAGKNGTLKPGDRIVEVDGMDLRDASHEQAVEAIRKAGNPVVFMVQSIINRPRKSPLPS

[15] = target: T11, NHERF1_2, O14745
T11 sequence (O14745 149-244, limits assumed, looked up): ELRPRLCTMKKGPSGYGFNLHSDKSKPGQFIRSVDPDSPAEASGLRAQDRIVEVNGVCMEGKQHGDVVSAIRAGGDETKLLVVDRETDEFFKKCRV

[16] = target: T12, PDLIM3, Q53GG5
T12 sequence (Q53GG5 1-94, limits assumed, looked up): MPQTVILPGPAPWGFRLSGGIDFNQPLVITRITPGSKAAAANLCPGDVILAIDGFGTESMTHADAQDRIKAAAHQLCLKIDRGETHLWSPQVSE

[17] = target: SDCBP_1, O00560
[18] = target: T13, PDZD7_1, Q9H5P4
T13 sequence (Q9H5P4 81-178, limits assumed, looked up): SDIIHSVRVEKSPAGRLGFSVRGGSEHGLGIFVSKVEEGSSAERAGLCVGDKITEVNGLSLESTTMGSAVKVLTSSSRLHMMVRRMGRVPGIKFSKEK

[19] = target: T14, NHERF3_2, Q5T2W1
T14 sequence (Q5T2W1 129-225, limits assumed, looked up): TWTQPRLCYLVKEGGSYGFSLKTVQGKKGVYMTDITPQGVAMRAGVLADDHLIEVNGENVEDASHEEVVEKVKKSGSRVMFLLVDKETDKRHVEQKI

[20] = target: T15, DVL1, O14640
T15 sequence (O14640 246-333, limits assumed, looked up): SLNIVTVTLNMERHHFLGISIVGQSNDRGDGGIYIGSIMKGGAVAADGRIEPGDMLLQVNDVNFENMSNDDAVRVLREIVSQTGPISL

[21] = target: T16, SHROOM3, Q8TF72
T16 sequence (Q8TF72 20-120, limits assumed, looked up): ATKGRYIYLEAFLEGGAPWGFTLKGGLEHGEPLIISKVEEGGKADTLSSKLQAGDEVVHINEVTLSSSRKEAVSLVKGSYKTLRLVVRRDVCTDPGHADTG

[22] = modified: phospho on S at position -3 from the C-terminal residue
[23] = modified: acetyl on K at position -1 from the C-terminal residue
[24] = plain residues with an end cap or a label only (N-terminal biotin on a linker: (peg)3)

Sequence of MAGI3_5, Q5TCQ9 (Q5TCQ9 847-941): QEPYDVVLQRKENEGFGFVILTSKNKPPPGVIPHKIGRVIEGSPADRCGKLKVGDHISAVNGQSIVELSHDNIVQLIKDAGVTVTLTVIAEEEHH
Sequence of SDCBP_1, O00560 (O00560 111-198): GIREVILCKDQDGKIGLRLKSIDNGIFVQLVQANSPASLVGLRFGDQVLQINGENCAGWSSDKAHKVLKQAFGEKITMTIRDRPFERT
Sequence of PREX1_1, Q8TCU6 (Q8TCU6 608-718): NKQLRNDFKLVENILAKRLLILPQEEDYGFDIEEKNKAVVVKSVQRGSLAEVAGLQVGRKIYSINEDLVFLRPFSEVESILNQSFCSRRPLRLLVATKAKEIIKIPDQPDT
Sequence of PARD3B_2, Q8TEW8 (Q8TEW8 376-471): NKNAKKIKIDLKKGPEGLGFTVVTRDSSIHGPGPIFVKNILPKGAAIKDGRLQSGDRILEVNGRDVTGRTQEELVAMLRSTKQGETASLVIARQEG

B1: RPS6KA1_-3P, Q15418 (peptide)
chain: RRVRKLPSTTL
- pKd [1, 22]: below the threshold
- pKd [2, 22]: below the threshold
- pKd [3, 22]: below the threshold
- pKd [4, 22]: below the threshold
- pKd [5, 22]: 3.69
- pKd [6, 22]: below the threshold
- pKd [7, 22]: below the threshold
- pKd [8, 22]: below the threshold
- pKd [9, 22]: below the threshold
- pKd [10, 22]: below the threshold
- pKd [11, 22]: below the threshold
- pKd [12, 22]: below the threshold
- pKd [13, 22]: below the threshold
- pKd [14, 22]: 3.63
- pKd [15, 22]: below the threshold
- pKd [16, 22]: below the threshold
- pKd [17, 22]: below the threshold
- pKd [18, 22]: below the threshold
- pKd [19, 22]: below the threshold
- pKd [20, 22]: below the threshold
- pKd [21, 22]: below the threshold

B2: PTEN_Ac, P60484 (peptide)
chain: DEDQHTQITKV
- pKd [1, 23]: below the threshold
- pKd [2, 23]: below the threshold
- pKd [3, 23]: below the threshold
- pKd [4, 23]: below the threshold
- pKd [5, 23]: 3.98
- pKd [6, 23]: below the threshold
- pKd [7, 23]: below the threshold
- pKd [8, 23]: below the threshold
- pKd [9, 23]: below the threshold
- pKd [10, 23]: below the threshold
- pKd [11, 23]: below the threshold
- pKd [12, 23]: below the threshold
- pKd [13, 23]: 3.97
- pKd [14, 23]: 4.8
- pKd [15, 23]: below the threshold
- pKd [16, 23]: below the threshold
- pKd [17, 23]: below the threshold
- pKd [18, 23]: below the threshold
- pKd [19, 23]: 3.61
- pKd [20, 23]: below the threshold
- pKd [21, 23]: below the threshold

B3: SARS-Cov2-3a, P0DTC3 (peptide)
chain: YDEPTTTTSVPL
- pKd [1, 24]: below the threshold
- pKd [2, 24]: below the threshold
- pKd [3, 24]: below the threshold
- pKd [4, 24]: below the threshold
- pKd [5, 24]: below the threshold
- pKd [6, 24]: below the threshold
- pKd [7, 24]: below the threshold
- pKd [8, 24]: below the threshold
- pKd [9, 24]: below the threshold
- pKd [10, 24]: below the threshold
- pKd [11, 24]: below the threshold
- pKd [12, 24]: below the threshold
- pKd [13, 24]: below the threshold
- pKd [14, 24]: below the threshold
- pKd [15, 24]: below the threshold
- pKd [16, 24]: below the threshold
- pKd [17, 24]: below the threshold
- pKd [18, 24]: below the threshold
- pKd [19, 24]: below the threshold
- pKd [20, 24]: below the threshold
- pKd [21, 24]: below the threshold
